# Results reported in publication PMC7326497, “Membrane characteristics tune activities of endosomal and autophagic human VPS34 complexes” (eLife, 2020).
# B1: human UVRAG, specific subunit of complex II (natural protein, UniProt Q9P2Y5 1-699, looked up)
# chain: MSASASVGGPVPQPPPGPAAALPPGSAARALHVELPSQQRRLRHLRNIAARNIVNRNGHQLLDTYFTLHLCSTEKIYKEFYRSEVIKNSLNPTWRSLDFGIMPDRLDTSVSCFVVKIWGGKENIYQLLIEWKVCLDGLKYLGQQIHARNQNEIIFGLNDGYYGAPFEHKGYSNAQKTILLQVDQNCVRNSYDVFSLLRLHRAQCAIKQTQVTVQKIGKEIEEKLRLTSTSNELKKKSECLQLKILVLQNELERQKKALGREVALLHKQQIALQDKGSAFSAEHLKLQLQKESLNELRKECTAKRELFLKTNAQLTIRCRQLLSELSYIYPIDLNEHKDYFVCGVKLPNSEDFQAKDDGSIAVALGYTAHLVSMISFFLQVPLRYPIIHKGSRSTIKDNINDKLTEKEREFPLYPKGGEKLQFDYGVYLLNKNIAQLRYQHGLGTPDLRQTLPNLKNFMEHGLMVRCDRHHTSSAIPVPKRQSSIFGGADVGFSGGIPSPDKGHRKRASSENERLQYKTPPPSYNSALAQPVTTVPSMGETERKITSLSSSLDTSLDFSKENKKKGEDLVGSLNGGHANVHPSQEQGEALSGHRATVNGTLLPSEQAGSASVQLPGEFHPVSEAELCCTVEQAEEIIGLEATGFASGDQLEAFNCIPVDSAVAVECDEQVLGEFEEFSRRIYALNENVSSFRRPRRSSDK
# notes: UVRAG, human; see Supplementary file 6; also called HsUVRAG; not shown: ZZ (only in pYO1018 and pYO1023)
# Molecular target: T1, human VPS15, subunit of complexes I and II (human, UniProt Q99570 1-1358)
# T1 construct: VPS15, human; expressed as HsVPS15-3xTEV-ZZ from the plasmid HsVPS34 + HsVPS15-3xTEV-ZZ; A 3xTEV site lies between VPS15 and ZZ; whether the tag was cut off is told only in Ohashi et al., 2016; The printed theoretical masses fit tag-free whole chains (my reckoning); also called HsVPS15; source: Expi293 cells, transfected, co-expressed with the other subunits, purified as a complex (method of …)
# T1 sequence (Q99570 whole entry, one chain of several): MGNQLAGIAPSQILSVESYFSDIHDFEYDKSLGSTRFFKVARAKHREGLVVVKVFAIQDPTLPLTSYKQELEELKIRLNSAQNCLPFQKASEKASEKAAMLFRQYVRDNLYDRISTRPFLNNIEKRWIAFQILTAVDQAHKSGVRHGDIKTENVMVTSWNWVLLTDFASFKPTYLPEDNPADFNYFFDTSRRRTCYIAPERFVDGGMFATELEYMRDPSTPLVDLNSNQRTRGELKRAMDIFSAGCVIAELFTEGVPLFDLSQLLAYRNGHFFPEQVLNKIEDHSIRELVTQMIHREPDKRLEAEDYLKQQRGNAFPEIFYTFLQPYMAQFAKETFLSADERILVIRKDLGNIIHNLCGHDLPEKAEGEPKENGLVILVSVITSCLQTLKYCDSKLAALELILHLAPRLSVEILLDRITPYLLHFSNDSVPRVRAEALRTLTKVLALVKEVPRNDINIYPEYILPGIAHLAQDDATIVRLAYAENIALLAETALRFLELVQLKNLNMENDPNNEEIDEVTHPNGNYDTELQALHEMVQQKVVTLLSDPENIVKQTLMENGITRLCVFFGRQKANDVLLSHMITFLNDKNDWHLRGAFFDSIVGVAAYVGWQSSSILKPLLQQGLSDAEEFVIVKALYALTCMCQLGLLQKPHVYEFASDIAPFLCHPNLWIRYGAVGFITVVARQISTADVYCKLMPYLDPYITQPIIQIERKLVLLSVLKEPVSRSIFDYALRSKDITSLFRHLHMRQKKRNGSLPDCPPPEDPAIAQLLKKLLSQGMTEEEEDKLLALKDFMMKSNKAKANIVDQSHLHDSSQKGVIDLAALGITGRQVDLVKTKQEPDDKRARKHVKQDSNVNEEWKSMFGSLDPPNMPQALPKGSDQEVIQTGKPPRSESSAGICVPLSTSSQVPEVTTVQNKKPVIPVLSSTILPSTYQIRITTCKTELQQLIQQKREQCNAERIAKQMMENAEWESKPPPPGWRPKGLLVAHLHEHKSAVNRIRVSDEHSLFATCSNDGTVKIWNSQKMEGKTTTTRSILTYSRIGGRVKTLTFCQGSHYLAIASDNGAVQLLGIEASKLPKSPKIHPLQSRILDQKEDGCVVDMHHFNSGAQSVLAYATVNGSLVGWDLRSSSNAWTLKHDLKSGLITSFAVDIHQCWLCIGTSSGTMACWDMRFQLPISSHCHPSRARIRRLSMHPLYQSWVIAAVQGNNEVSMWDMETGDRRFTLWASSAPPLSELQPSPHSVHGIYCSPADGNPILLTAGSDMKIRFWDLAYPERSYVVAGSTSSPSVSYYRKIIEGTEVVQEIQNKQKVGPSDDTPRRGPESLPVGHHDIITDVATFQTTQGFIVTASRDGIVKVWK
# Experiment: SEC-MALS; purified, co-expressed human complex II at 0.8 mg/mL; Superose 6 10/300, 0.5 mL/min; measured 384 kDa against 386 kDa theoretical
# Settings: both partners purified
binder,measurement,value
B1,stoichiometry N,1
